Substitutions are numbered along the chain they refer to.
Experiments:
[1] = target: T1, human IL-36α (R&D Systems cat#6995-IL-010/CF) (human, UniProt Q9UHA7 6-158); experiment: cell-based or functional assay
T1 sequence (looked up): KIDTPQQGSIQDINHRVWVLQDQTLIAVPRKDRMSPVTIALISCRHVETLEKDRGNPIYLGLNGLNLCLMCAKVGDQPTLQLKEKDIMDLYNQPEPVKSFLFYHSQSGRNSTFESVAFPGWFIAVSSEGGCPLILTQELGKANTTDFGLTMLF

human IL-36γ, truncated [2] = target: T2, human IL-36γ, truncated (human, UniProt Q9NZH8 18-169); experiment: cell-based or functional assay
T2 sequence: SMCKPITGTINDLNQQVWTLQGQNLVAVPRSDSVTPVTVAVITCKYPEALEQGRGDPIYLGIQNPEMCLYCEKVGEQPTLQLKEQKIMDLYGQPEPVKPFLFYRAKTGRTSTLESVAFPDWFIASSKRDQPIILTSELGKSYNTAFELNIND

[3] = target: T3, cynomolgus IL-36α, truncated (cynomolgus macaque (Macaca fascicularis), UniProt Q9UHA7 14-158 (human entry), limits assumed); experiment: SPR, Biacore, 1:1 Langmuir fit
T3 construct: Untagged after removal of the His-SUMO tag; also called cynomolgus IL-36 alpha; cyIL-36alpha
T3 chain: T1 sequence (looked up) with I2S, D3E, T4M, Q7P, G8V, T24I, M34V, A40S, V74A
Description: (§1) The humanized antibodies obtained in Example 6 were tested for their binding to recombinant human or cynomolgus macaque IL36a and IL-36γ in Biacore assays. The association time was set to 60 seconds, and the final dissociation time was set to 600 seconds. Equilibrium dissociation constant KD (kd/ka) of exemplary antibodies was determined using a 1:1 Langmuir fit model (see Tables 17-18 below).

[4] = target: T4, cynomolgus IL-36γ, truncated (cynomolgus macaque (Macaca fascicularis), UniProt Q9NZH8 18-167 (human entry), limits assumed); experiment: SPR, Biacore, 1:1 Langmuir fit
T4 construct: Untagged after removal of the His-SUMO tag; also called cynomolgus IL-36 gamma; cyIL-36gamma
T4 chain: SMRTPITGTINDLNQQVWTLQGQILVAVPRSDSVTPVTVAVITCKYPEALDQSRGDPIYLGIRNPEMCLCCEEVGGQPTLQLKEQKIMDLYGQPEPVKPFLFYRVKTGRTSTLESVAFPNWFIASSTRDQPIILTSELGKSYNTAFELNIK
Description: as §1

[5] = target: T5, human IL-36α(R12), truncated (human, UniProt Q9UHA7 6-158); experiment: SPR, Biacore, 1:1 Langmuir fit
T5 construct: Untagged after removal of the His-SUMO tag; also called hIL-36alpha
T5 chain: T1 sequence (looked up) with Q7R
Description: as §1

human IL-36γ, truncated [6] = target: T2, human IL-36γ, truncated; experiment: SPR, Biacore, 1:1 Langmuir fit
Description: as §1

[7] = target: T3, cynomolgus IL-36α, truncated; experiment: SPR, Biacore, 1:1 Langmuir fit; heads of c3 and c4 printed swapped
Description: as §1

[8] = target: T4, cynomolgus IL-36γ, truncated; experiment: as above
Description: as §1

[9] = target: T5, human IL-36α(R12), truncated; experiment: as above
Description: as §1

human IL-36γ, truncated [10] = target: T2, human IL-36γ, truncated; experiment: as above
Description: as §1

[11] = target: T3, cynomolgus IL-36α, truncated; experiment: cell-based or functional assay
[12] = target: T5, human IL-36α(R12), truncated; experiment: cell-based or functional assay
[13] = target: T5, human IL-36α(R12), truncated; experiment: cell-based or functional assay
human IL-36γ, truncated [14] = target: T2, human IL-36γ, truncated; experiment: cell-based or functional assay; remark: listed apart in the source
[15] = target: T3, cynomolgus IL-36α, truncated; experiment: SPR, Biacore T200, antibody on chip, IL-36 as analyte, 1:1 Langmuir fit
Description: (§2) Antibodies were further tested for their binding to recombinant human or cynomolgus IL36α, IL-36γ in Biacore assays. In order to kinetically analyze the binding activity of the IL-36α and IL-36γ dual antagonist antibodies, the binding activity to human and cynomolgus IL-36α and IL-36γ was measured by surface plasmon resonance method (SPR). All of the following manipulations were carried out using a Biacore T200 (GE Healthcare Life Sciences, Pittsburgh, Pa.).
(§3) To determine antibody affinity to human and cynomolgus IL36, recombinant antibodies were immobilized on a CM5 sensor chip (cat# BR100012, GE Healthcare Life Sciences, Pittsburgh, Pa.) by an amine coupling chemistry. In particular, the kinetic assay was carried out by immobilizing on the chip approximately 2000 RU of recombinant antibody. Thereafter, recombinant human or cynomolgus IL36 proteins, serially diluted from a high concentration, were allowed to run at a flow rate of 30 μL/min onto the chip for 420 seconds. The dissociation time was 3600 seconds and the binding curves were measured at 25° C. Regeneration was performed with 10 mM glycine pH 1.5 for 30s. Alternatively, the analytes were injected with increasing concentrations in a single cycle, the surface not being regenerated between injections, using a method referred to as “single cycle kinetics.” In particular, either anti-human or anti-mouse Fc specific antibodies were immobilized on a CM5 sensor chip (cat# BR100012, GE Healthcare Life Sciences, Pittsburgh, Pa.) by an amine coupling chemistry. Thereafter, IL-36α and IL-36γ dual antagonist mouse/human chimeric or mouse antibodies were captured at approximately 200 RUs, followed by injections of increasing concentrations of recombinant human and cynomolgus IL36 proteins. The association time was 300 seconds, and the final dissociation time was 1200 seconds. At the end of the analyte injections, the surface was regenerated with either 3M MgCl₂ (anti-human Fc capture antibody) for 30 s or 10 mM glycine-HCl pH 1.7 for 180 s (anti-mouse IgG capture antibody).
(§4) The raw data were double referenced by subtraction of the signals from a reference flow cell without immobilized ligand and a buffer blank. The sensorgram corresponding to each concentration was obtained.

[16] = target: T4, cynomolgus IL-36γ, truncated; experiment: as above
Description: as §2, §3, §4

[17] = target: T5, human IL-36α(R12), truncated; experiment: as above
Description: as §2, §3, §4

human IL-36γ, truncated [18] = target: T2, human IL-36γ, truncated; experiment: as above
Description: as §2, §3, §4

[19] = target: T5, human IL-36α(R12), truncated; experiment: cell-based or functional assay
human IL-36γ, truncated [20] = target: T2, human IL-36γ, truncated; experiment: cell-based or functional assay; remark: listed apart in the source
[21] = target: T4, cynomolgus IL-36γ, truncated; experiment: cell-based or functional assay
human IL-36γ, truncated [22] = target: T2, human IL-36γ, truncated; experiment: cell-based or functional assay; remark: listed apart in the source

B1: 144L249B LV9 HV11 (antibody, V domains shown)
VH: QVQLVQSGAEVKKPGASVKVSCKASGFNIKDTYIYWVRQAPGQGLEWIGRIDPAIGTTRYDPKFQGKATLTTDTSTNTAYLELSSLRSEDTAVYYCARYDYSGSSFYFDYWGQGTLVTVSS
VL: QAVVTQEPSLTVSPGGTVTLTCRSSTGAVTTSNYANWVQEKPGQLFTGLIGGTNDRAPGVPARFSGSLLGGKAALTLSGAQPEDEADYFCALWYSNHLVFGGGTKLTVL
notes: Humanized
In the case of B1, the “IC50 of IL-8 secretion (AlphaLISA), HaCaT, 10 nM human IL-36α” value [1] is reported as 7.68 nM, the “IC50 of IL-8 secretion (AlphaLISA), HaCaT, 10 nM human IL-36γ” value (human IL-36γ, truncated [2]) is reported as 16.5 nM and the Kd [3] is reported as 0.927 nM. For the same binder, the Kd [4] was 0.913 nM, the Kd [5] was 1.29 nM and the Kd (human IL-36γ, truncated [6]) was 0.795 nM. The koff [7] was 0.00135 s⁻¹, the kon [7] was 1.46e+06 M⁻¹ s⁻¹ and the koff [8] was 0.000866 s⁻¹. For the same binder, the kon [8] was 948000 M⁻¹ s⁻¹, the koff [9] was 0.00102 s⁻¹ and the kon [9] was 791000 M⁻¹ s⁻¹. It also gave a koff (human IL-36γ, truncated [10]) of 0.000706 s⁻¹ and a kon (human IL-36γ, truncated [10]) of 888000 M⁻¹ s⁻¹.

B2: 144L249B LV9 HV10b (antibody, V domains shown)
VH: B1 VH with N77S
VL: B1 VL
notes: Humanized
B2 was tested, and the “IC50 of IL-8 secretion (AlphaLISA), HaCaT, 10 nM human IL-36α” value [1] was 6.61 nM, the “IC50 of IL-8 secretion (AlphaLISA), HaCaT, 10 nM human IL-36γ” value (human IL-36γ, truncated [2]) was 20.7 nM and the Kd [3] was 0.944 nM. The Kd [4] was 1.13 nM, the Kd [5] was 1.39 nM and the Kd (human IL-36γ, truncated [6]) was 0.942 nM. For the same binder, the koff [7] was 0.00126 s⁻¹, the kon [7] was 1.34e+06 M⁻¹ s⁻¹ and the koff [8] was 0.000969 s⁻¹. The kon [8] was 855000 M⁻¹ s⁻¹, the koff [9] was 0.000989 s⁻¹ and the kon [9] was 714000 M⁻¹ s⁻¹. It also gave a koff (human IL-36γ, truncated [10]) of 0.000728 s⁻¹ and a kon (human IL-36γ, truncated [10]) of 772000 M⁻¹ s⁻¹.

B3: 144L249B LV7a HV11 (antibody, V domains shown)
VH: B1 VH
VL: B1 VL with E40Q, L45A, L77I
notes: Humanized
With B3 the “IC50 of IL-8 secretion (AlphaLISA), HaCaT, 10 nM human IL-36α” value [1] was 9.2 nM, the “IC50 of IL-8 secretion (AlphaLISA), HaCaT, 10 nM human IL-36γ” value (human IL-36γ, truncated [2]) was 25.8 nM and the Kd [3] was 1 nM. The Kd [4] was 0.91 nM, the Kd [5] was 1.37 nM and the Kd (human IL-36γ, truncated [6]) was 0.789 nM. It also gave a koff [7] of 0.0014 s⁻¹, a kon [7] of 1.4e+06 M⁻¹ s⁻¹ and a koff [8] of 0.000831 s⁻¹. The kon [8] was 913000 M⁻¹ s⁻¹, the koff [9] was 0.00103 s⁻¹ and the kon [9] was 749000 M⁻¹ s⁻¹. For the same binder, the koff (human IL-36γ, truncated [10]) was 0.000678 s⁻¹ and the kon (human IL-36γ, truncated [10]) was 859000 M⁻¹ s⁻¹.

B4: 144L249B LV9 HV10c (antibody, V domains shown)
VH: B1 VH with T72A
VL: B1 VL
notes: Humanized
In the case of B4, the “IC50 of IL-8 secretion (AlphaLISA), HaCaT, 10 nM human IL-36α” value [1] is reported as 5.13 nM, the “IC50 of IL-8 secretion (AlphaLISA), HaCaT, 10 nM human IL-36γ” value (human IL-36γ, truncated [2]) is reported as 11.5 nM and the Kd [3] is reported as 0.674 nM. The Kd [4] was 0.552 nM, the Kd [5] was 0.992 nM and the Kd (human IL-36γ, truncated [6]) was 0.625 nM. The koff [7] was 0.00103 s⁻¹, the kon [7] was 1.53e+06 M⁻¹ s⁻¹ and the koff [8] was 0.000603 s⁻¹. For the same binder, the kon [8] was 1.09e+06 M⁻¹ s⁻¹, the koff [9] was 0.000843 s⁻¹ and the kon [9] was 850000 M⁻¹ s⁻¹. It also gave a koff (human IL-36γ, truncated [10]) of 0.000625 s⁻¹ and a kon (human IL-36γ, truncated [10]) of 999000 M⁻¹ s⁻¹.

B5: 144L249B (antibody, V domains shown)
VH: EVQLQQSGAELVKPGASVKLSCTASGFNIKDTYIYWVKQRPEQGLEWIGRIDPAIGTTRYDPKFQGKATLTADTSSNTAFLQLSSLTSEDTAVYYCARYDYSGSSFYFDYWGRGTTLTVSS
VL: QAVVTQESALTTSPGETVTLTCRSSTGAVTTSNYANWVQEKPDHLFTGLIGGTNNRAPGVPARFSGSLIGDKAALTITGAQTEDEAIYFCALWYSNHLVFGGGTKLTVL
notes: Mouse monoclonal from hybridoma; mouse IgG heavy and lambda light chain; also called mouse antibody 144L249B
B5 was tested, and the “IC50 of IL-8 secretion, HaCaT, 10 nM cynomolgus IL-36α, FIG. 2B” value [11] was 7.94 nM, the “IC50 of IL-8 secretion, HaCaT, 10 nM human IL-36α, FIG. 1C” value [12] was 14.5 nM and the Kd [3] was 1.16 nM. The Kd [4] was 0.288 nM, the Kd [5] was 1.53 nM and the Kd (human IL-36γ, truncated [6]) was 0.399 nM. For the same binder, the koff [7] was 0.00105 s⁻¹, the kon [7] was 905000 M⁻¹ s⁻¹ and the koff [8] was 0.000326 s⁻¹. For the same binder, the kon [8] was 1.13e+06 M⁻¹ s⁻¹, the koff [9] was 0.000785 s⁻¹ and the kon [9] was 515000 M⁻¹ s⁻¹. For the same binder, the koff (human IL-36γ, truncated [10]) was 0.000395 s⁻¹, the kon (human IL-36γ, truncated [10]) was 990000 M⁻¹ s⁻¹ and the “IC50 of IL-8 secretion, primary human monocytes, 20 nM human IL-36α, FIG. 5A” value [13] was 27.1 nM. The “IC50 of IL-8 secretion, primary human monocytes, 6 nM human IL-36γ, FIG. 5C” value (human IL-36γ, truncated [14]) was 12 nM, the “IC50 of IL-8 secretion, primary human monocytes, 50 nM human IL-36γ, FIG. 5D” value (human IL-36γ, truncated [14]) was 38.7 nM and the Kd [15] was 1.28 nM. It also gave a koff [15] of 0.000839 s⁻¹, a kon [15] of 658000 M⁻¹ s⁻¹ and a Kd [16] of 0.312 nM. For the same binder, the koff [16] was 0.000197 s⁻¹, the kon [16] was 631000 M⁻¹ s⁻¹ and the Kd [17] was 1.67 nM. The koff [17] was 0.000899 s⁻¹, the kon [17] was 539000 M⁻¹ s⁻¹ and the Kd (human IL-36γ, truncated [18]) was 0.377 nM. The koff (human IL-36γ, truncated [18]) was 0.000194 s⁻¹, the kon (human IL-36γ, truncated [18]) was 516000 M⁻¹ s⁻¹ and the “IC50 of IL-8 secretion, primary human keratinocytes, 6.25 nM human IL-36α, FIG. 4A” value [19] was 13.8 nM. For the same binder, the “IC50 of IL-8 secretion, primary human keratinocytes, 8.4 nM human IL-36γ, FIG. 4C” value (human IL-36γ, truncated [20]) was 9.28 nM, the “IC50 of IL-8 secretion, HaCaT, 10 nM cynomolgus IL-36γ, FIG. 2D” value [21] was 11.8 nM and the “IC50 of IL-8 secretion, HaCaT, 10 nM human IL-36γ, FIG. 1F” value (human IL-36γ, truncated [22]) was 9.81 nM.

From US20210380675A1 (Kyowa Kirin, published 2021)
